± gives the standard error. Fewer inactive variants are shown than the library holds.
B1: glmS ribozyme (parent)
chain: AUAAAAGCGCCAGAACUACAGAAAUGUAGUUGACGAGGAGGAGGUUUAUCGAAUUUUCGGCGGAUGCCUCCAAA

Variants of: B1
Test: self-cleavage kobs at 2500 uM GlcN6P; higher = faster cleavage; RNA array
Conditions: with glucosamine-6-phosphate
Summary of the method: (§1)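 A hybridised Cy3 probe tracked barcoded ribozyme variants, transcribed in situ by E. coli RNA polymerase on sequenced MiSeq chips, at 37 °C. The variants received 40 μM to 10 mM glucosamine-6-phosphate in HEPES/KCl/Mg(OAc)2 buffer. kobs came from decay fits and kcat and KM from weighted Michaelis–Menten fits.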

| Variant | self-cleavage kobs at 2500 uM GlcN6P [s⁻¹] |
| --- | --- |
| A33G U47G G66A | < 1e-05 |
| U56C A64U U65C | < 1e-05 |
| G38U G41U G59C U65A | < 1e-05 |
| A14G A33U G60U | < 1e-05 |
| A15G C34A G37C | < 1e-05 |
| A6C G29A G37U | < 1e-05 |
| A12C U54G C71U | 0.00338 ± 0.0011 |
| U30A G37A G59C | < 1e-05 |
| C10G C11G A36C G38C A53C G60U | < 1e-05 |
| G41U U56C C70G | 0.00166 ± 0.00032 |
| C8U G32U U45C | < 1e-05 |
| G7U U54C C61A | < 1e-05 |
| G9C A52U C58U | < 1e-05 |
| U56C C67A C71G | < 1e-05 |
| A15U U56C C68A C71G | < 1e-05 |
| A14C C34G A39C | < 1e-05 |
| G29C U49G C61U | < 1e-05 |
| A12U A36C G59U U65A | < 1e-05 |
| C10G C11A A33C A36U A52U A53C U56A G62U | < 1e-05 |
| G7U A52G G60C C67G | < 1e-05 |
| A33U G35A U45G C50G C70A | < 1e-05 |
| C10A G40A U47C A48G C70U | < 1e-05 |
| G43U G44A C50U C61G | < 1e-05 |
| G41A A53C U54C G60C G63U | < 1e-05 |

| Variant | self-cleavage kobs at 2500 uM GlcN6P [s⁻¹] |
| --- | --- |
| G40U U49A G62C C68U | < 1e-05 |
| C11A G51U U55A G62A | < 1e-05 |
| C8G C11A G13U A33U A36C U55C C58G C71G | < 1e-05 |
| C11A A14C C70U | 7.46e-05 ± 2.7e-05 |
| U30G U55A C61G C71G | 5.45e-05 ± 2.4e-05 |
| A6U G35C U56A G60U A64G | < 1e-05 |
| C34U G40C G43A | < 1e-05 |
| C10G A14C U30G G43A | < 1e-05 |
| A53G A64G C67G | 0.000335 ± 9.1e-05 |
| G51A A53C G62U | < 1e-05 |
| G13U U31G G41U G43U | < 1e-05 |
| C8A C50G U69G | 0.000345 ± 7.5e-05 |
| C16U G29U A53U | 0.00254 ± 0.00062 |
| G7C G29U G35U | < 1e-05 |
| U31C A36U | < 1e-05 |
| C10A G41C C50G A53C | < 1e-05 |
| A6G G38C G41U C68U | < 1e-05 |
| C34A U47C A53U | < 1e-05 |
| C8U C10G G38A | < 1e-05 |
| C11U A14G C70G | 0.000303 ± 5e-05 |
| U30G G43U U45A C68U | 0.000375 ± 9.4e-05 |
| A15G U31G U47G | 0.000803 ± 0.00015 |
| C11A U45A U56A | 9.98e-05 ± 2.9e-05 |
| G35C A53G C71U | < 1e-05 |

| Variant | self-cleavage kobs at 2500 uM GlcN6P [s⁻¹] |
| --- | --- |
| A15G G38U U57A G62U U69A | 0.000891 ± 0.00032 |
| C8U A39U C67G | < 1e-05 |
| G43A U54A | 3.85e-05 ± 1.7e-05 |
| C8G C10U G37U A42C U54G A64G C70G | < 1e-05 |
| G13C U30C G35C G40U U47C C50A | < 1e-05 |
| A14C U45A U57A | 3.29e-05 ± 1.2e-05 |
| U31C U56C C70G | < 1e-05 |
| C16G G43U U45A U65G C68U C70U | < 1e-05 |
| A6G U30C G44U A52C G63U | < 1e-05 |
| C10U U47G A52U U69A | 7.36e-05 ± 3.5e-05 |
| G32U U55G C70U | 0.000141 ± 5e-05 |
| A33G U46A G59C C67G C68G | 4.87e-05 ± 2.1e-05 |
| C8U G51U U57C | < 1e-05 |
| U31C G32A G38C G43A | < 1e-05 |
| A15C G32U C34U | < 1e-05 |
| U31G G32A U56G | 9.1e-05 ± 2.5e-05 |
| C8A U45G U54G G66A | < 1e-05 |
| A39U U65C C70G | 0.000144 ± 3.7e-05 |
| A12C A14U A53C | 8.51e-05 ± 4e-05 |
| G32A G35A C61U C71U | < 1e-05 |
| U45A U55C U57C | 8.32e-05 ± 1.8e-05 |
| A12G A14C A53U A64C | < 1e-05 |
| C10G A36C G60C C70U | < 1e-05 |
| G13U G40A A53G | 0.000153 ± 3.6e-05 |

| Variant | self-cleavage kobs at 2500 uM GlcN6P [s⁻¹] |
| --- | --- |
| G7U U45A C58A | < 1e-05 |
| A15C U30A U31C C71G | 0.000148 ± 5.9e-05 |
| G26U A33C C34A U47G | < 1e-05 |
| C10A U47G G59U C68U | 5.63e-05 ± 1.7e-05 |
| A14U G40C U46C A53G C71G | 0.00101 ± 0.00038 |
| G43U A48U G62A C67A | < 1e-05 |
| C8A A15C G32A | < 1e-05 |
| A53U U54C U55A A64G | 0.00369 ± 0.00074 |
| C10U A14C G32C | < 1e-05 |
| A6G A12C G37C U45A C70U | < 1e-05 |
| A6U A52G C67G | 0.000425 ± 0.00018 |
| A15U U55G C58U C70G | 6.29e-05 ± 2.7e-05 |
| U46G C61A C70G | < 1e-05 |
| A6G A14C G40C A53U G60C | < 1e-05 |
| G38U U49G U57A C70G | 6.84e-05 ± 3.3e-05 |
| C8G G37A A39U | < 1e-05 |
| C16G A48C G60U A64U | < 1e-05 |
| A6U A33U C68G | < 1e-05 |
| G26U G32A G63A C71U | < 1e-05 |
| U57A G59U G66U | < 1e-05 |
| G13C G35C G44U U56A C61U | < 1e-05 |
| G7A C11A A12U G32A G60A C61G | < 1e-05 |
| A39G U47G C68G | 5.94e-05 ± 2.4e-05 |
| A36G G41U G60A | < 1e-05 |

| Variant | self-cleavage kobs at 2500 uM GlcN6P [s⁻¹] |
| --- | --- |
| A12C U49G G62U | < 1e-05 |
| A6G A39U U49C | < 1e-05 |
| G7U A39U C50A | < 1e-05 |
| C11A U54A U56A G59U | 0.00154 ± 0.00068 |
| G9U G38C G40U G43C | < 1e-05 |
| G32C G66U C70A | < 1e-05 |
| G38A G62A G63U | < 1e-05 |
| A33C G60U G62C | < 1e-05 |
| C16U G32C A36G C58G G59C C61A | < 1e-05 |
| U31C G37C A48G U49G U54C C71A | < 1e-05 |
| G37U A53C | < 1e-05 |
| A14G G51C A64U C67G C71U | < 1e-05 |
| C11U U49A A52G | < 1e-05 |
| G7C G21U C67G | < 1e-05 |
| A33U G40C U46G C50U | < 1e-05 |
| G9C A39C C67A | < 1e-05 |
| A52G U57G C58U | 4.96e-05 ± 1.8e-05 |
| G9U A12U C68U | < 1e-05 |
| C11U A12G A15U | 0.000175 ± 4.8e-05 |
| A15G G35A U46C A53C | < 1e-05 |
| A14U A36U G41A A48G C68U | < 1e-05 |
| C34A A36C G37U G51U | < 1e-05 |
| A12U C16U C70A | 0.000361 ± 0.00013 |
| A6G G7C A36U A39U | < 1e-05 |

| Variant | self-cleavage kobs at 2500 uM GlcN6P [s⁻¹] |
| --- | --- |
| G40C G44A U54A C61A A64G | < 1e-05 |
| G41U G43C G51U C68G | < 1e-05 |
| C10A G51U C67G | 0.000109 ± 5.4e-05 |
| A6G G29A G60A | < 1e-05 |
| C11G U49C C70U | < 1e-05 |
| G7U C16U U46A | < 1e-05 |
| G41C A48C A64G | < 1e-05 |
| C16A A36C U49A U65G | < 1e-05 |
| A14G U55G C68A | 0.000208 ± 5.1e-05 |
| C11U G32C C50G C61G | 0.000267 ± 7.4e-05 |
| G35U C58G A64U | < 1e-05 |
| A15C U31G G59C | < 1e-05 |
| G7A A48G C70U | < 1e-05 |
| U46G U54C C58G U65A | < 1e-05 |
| G7A A12G G35A | < 1e-05 |
| A24C G26U G40U | 0.00202 ± 0.00051 |
| C10U A12U A42G | 0.000153 ± 5.7e-05 |
| C11U A48U G60U | < 1e-05 |
| G37A G40C U47G U56G G60C C71G | < 1e-05 |
| A33C U56C C71A | < 1e-05 |
| C16U U31C U46C C70U | 0.000342 ± 0.00015 |
| G41A A53G U55A | 0.000666 ± 0.00022 |
| G13U U45A U46A C58U | 6.89e-05 ± 3.4e-05 |
| G7C C11G A12U | < 1e-05 |

| Variant | self-cleavage kobs at 2500 uM GlcN6P [s⁻¹] |
| --- | --- |
| G35A C50U | 2.72e-05 ± 1.2e-05 |
| G7C A53G C70A | < 1e-05 |
| C10A A48C A64U | < 1e-05 |
| A6G C10U U31A G60U C67U | < 1e-05 |
| A6C G13U A33U A52C G63C | < 1e-05 |
| C8A G32U A48C | < 1e-05 |
| A33G A36G G38U C61U C71A | < 1e-05 |
| G7C C10U G13C G66U | < 1e-05 |
| C19U G41C U55C C70A | 0.000203 ± 9.2e-05 |
| G32A G51U | < 1e-05 |
| C10A U54C | < 1e-05 |
| C16U G51C U54C U57G | < 1e-05 |
| C16A A33C C71A | < 1e-05 |
| A6U G13A U49C | < 1e-05 |
| A33C U56G | 5.24e-05 ± 2.2e-05 |
| A12U G51A G60U | < 1e-05 |
| G32C A39G A53G G62A | < 1e-05 |
| G7A U30G G32A A39G | < 1e-05 |
| A12U G32A G35U U49A C61G U65C G66A | < 1e-05 |

Variants of: B1
Test: self-cleavage kobs at 10000 uM GlcN6P; higher = faster cleavage; RNA array
Conditions: with glucosamine-6-phosphate
Summary of the method: as §1

| Variant | self-cleavage kobs at 10000 uM GlcN6P [s⁻¹] |
| --- | --- |
| A14G A33U G60U | < 1e-05 |
| C16U G29U A53U | 0.00591 ± 0.00094 |
| U31C A36U | < 1e-05 |
| C11U A14G C70G | 0.000165 ± 3.1e-05 |
| G35C A53G C71U | < 1e-05 |
| U31G G32A U56G | 0.000522 ± 9.3e-05 |
| U45A U55C U57C | 0.00033 ± 7.3e-05 |
| A14U G40C U46C A53G C71G | 0.00202 ± 0.00042 |
| G37U A53C | < 1e-05 |
| C11U A12G A15U | 0.000193 ± 4.2e-05 |
| A24C G26U G40U | 0.00158 ± 0.00035 |
| G35A C50U | 4.87e-05 ± 8e-06 |
| A33C U56G | 5.35e-05 ± 1e-05 |

Reference: the supplement of paper PMC7125110
